A word on the EC50: it is the concentration giving half of the maximal effect.

Results on 3 molecules are retold here after patent US20240270874A1 (JIANGSU HENGRUI PHARMACEUTICALS, published 2024).

One test concerns the target human FGFR1c on cells (human, UniProt P11362 22-822). The test is described as follows: cell-based or functional assay.
Test [1] deals with T1, cynomolgus monkey KLB on CHOK1-cynoKLB cells (cynomolgus monkey, UniProt A0A2K5WB58 1-1044).
T1 construct: whole, on cells; also called monkey KLB antigen
T1 sequence: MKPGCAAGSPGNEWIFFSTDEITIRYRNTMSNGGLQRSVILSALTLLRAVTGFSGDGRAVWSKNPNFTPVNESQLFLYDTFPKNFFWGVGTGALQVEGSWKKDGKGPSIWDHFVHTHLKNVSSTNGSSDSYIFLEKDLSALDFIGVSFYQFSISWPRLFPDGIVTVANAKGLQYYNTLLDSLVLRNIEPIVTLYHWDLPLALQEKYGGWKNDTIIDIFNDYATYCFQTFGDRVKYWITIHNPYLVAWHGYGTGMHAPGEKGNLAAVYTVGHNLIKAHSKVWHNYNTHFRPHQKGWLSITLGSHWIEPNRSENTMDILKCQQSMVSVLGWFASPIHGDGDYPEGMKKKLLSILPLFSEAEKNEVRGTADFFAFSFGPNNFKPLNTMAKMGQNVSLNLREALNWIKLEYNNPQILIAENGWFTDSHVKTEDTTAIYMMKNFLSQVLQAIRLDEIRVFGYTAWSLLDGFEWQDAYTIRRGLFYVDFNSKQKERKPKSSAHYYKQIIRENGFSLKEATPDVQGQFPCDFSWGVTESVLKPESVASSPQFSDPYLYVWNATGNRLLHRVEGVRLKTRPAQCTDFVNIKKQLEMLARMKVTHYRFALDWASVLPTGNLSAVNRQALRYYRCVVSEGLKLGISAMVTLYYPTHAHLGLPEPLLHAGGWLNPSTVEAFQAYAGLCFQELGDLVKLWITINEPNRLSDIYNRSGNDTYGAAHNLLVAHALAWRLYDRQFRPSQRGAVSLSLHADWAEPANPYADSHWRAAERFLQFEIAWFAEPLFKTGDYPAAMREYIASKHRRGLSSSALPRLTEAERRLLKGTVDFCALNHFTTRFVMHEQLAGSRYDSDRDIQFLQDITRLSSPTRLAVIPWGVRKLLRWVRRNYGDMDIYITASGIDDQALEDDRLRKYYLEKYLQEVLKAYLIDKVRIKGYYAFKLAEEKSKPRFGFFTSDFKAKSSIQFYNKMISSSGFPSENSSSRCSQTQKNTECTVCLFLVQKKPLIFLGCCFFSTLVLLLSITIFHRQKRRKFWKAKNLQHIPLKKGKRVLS
Put plainly: flow cytometry on CHOK1-cynoKLB cells. As to the method:
The binding ability of the antibodies for CHOK1 cell strains CHOK1-hKLB and CHOK1-cynoKLB overexpressing human KLB and monkey KLB (see Example 1 for specific preparation procedure), respectively, was detected by flow cytometry. The specific procedure was as follows: the above cells were cultured in 10% FBS-containing IMDM medium and incubated in an incubator at 37° C. and 5% CO₂ for 2 days. The cells were then added to a cell plate at 1×10⁵ cells per well, centrifuged at 300 g for 5 min, and then washed once with 1% BSA. The antibody diluted in gradient was added to the cell plate at 100 μL per well, and the mixture was incubated at 4° C. for 1 h and washed once with 1% BSA. The diluted (1:400) APC-goat anti-human IgG Fc fluorescent secondary antibody was added at 100 μL per well, and the resulting mixture was incubated at 4° C. for 1 h. The plate was washed three times with 1% BSA, PBS was added at 100 μL per well, and the plate was read.
Background: A flow cytometer gives signals particle by particle.

Test [2] has as its target T2, hKLB (R&D, Cat. # 5889-KB) (human, UniProt Q86Z14 53-997, limits assumed).
T2 construct: bought soluble protein; also called KLB protein; human KLB
T2 sequence (looked up): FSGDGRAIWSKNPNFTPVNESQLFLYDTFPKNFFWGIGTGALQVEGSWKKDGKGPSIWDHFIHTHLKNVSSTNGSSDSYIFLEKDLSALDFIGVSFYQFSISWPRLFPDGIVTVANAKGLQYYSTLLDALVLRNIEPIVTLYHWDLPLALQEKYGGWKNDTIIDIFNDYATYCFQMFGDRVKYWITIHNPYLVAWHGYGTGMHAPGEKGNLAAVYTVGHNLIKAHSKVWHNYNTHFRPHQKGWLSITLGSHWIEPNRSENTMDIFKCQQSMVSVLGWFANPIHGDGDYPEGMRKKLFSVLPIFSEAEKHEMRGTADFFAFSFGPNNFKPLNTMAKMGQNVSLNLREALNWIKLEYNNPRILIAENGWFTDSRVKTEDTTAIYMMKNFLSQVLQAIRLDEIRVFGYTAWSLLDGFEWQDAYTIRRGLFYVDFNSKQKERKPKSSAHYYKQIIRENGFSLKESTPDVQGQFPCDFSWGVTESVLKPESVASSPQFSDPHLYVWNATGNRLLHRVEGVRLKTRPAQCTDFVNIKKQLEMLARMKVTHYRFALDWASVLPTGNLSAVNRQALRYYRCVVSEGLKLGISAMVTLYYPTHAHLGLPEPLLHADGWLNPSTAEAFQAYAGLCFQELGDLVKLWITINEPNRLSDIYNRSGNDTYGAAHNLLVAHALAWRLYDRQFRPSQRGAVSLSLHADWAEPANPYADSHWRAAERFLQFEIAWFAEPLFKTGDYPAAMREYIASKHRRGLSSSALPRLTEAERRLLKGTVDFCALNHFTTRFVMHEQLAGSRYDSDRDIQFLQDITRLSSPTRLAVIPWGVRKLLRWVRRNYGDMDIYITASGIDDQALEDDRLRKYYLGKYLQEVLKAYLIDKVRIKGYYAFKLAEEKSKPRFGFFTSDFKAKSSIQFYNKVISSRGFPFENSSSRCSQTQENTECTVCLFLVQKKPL
The test is described as follows: BLI (Octet HTX) competition; KLB+antibody premix on SA sensor; competitor: immobilised Bio-FGF19. As to the method:
Bio-FGF21/Bio-FGF19 (obtained by subjecting FGF21 and FGF19 to Biotin labeling with a Biotin Labeling Kit-NH2 (available from DOJINDO Molecular technologies Inc., LK03), wherein FGF21 is set forth in SEQ ID NO: 76 and FGF19 is set forth in SEQ ID NO: 77) was immobilized to an SA sensor (incubation for 80 s) at a concentration of 2 μg/mL, and the sensor was then transferred to a sample well containing KLB (R&D, 5889-KB-1 mg) or containing KLB+antibody premix (pre-incubation for at least 15 min) for 180 s of binding. The reaction signals were detected in real time using the ForteBio OCTET HTX instrument to obtain a binding curve.
On the technique in general: BLI is a label-free optical method that tracks binding on a fibre tip over time.

Chain of human FGFR1c on cells (P11362 22-822): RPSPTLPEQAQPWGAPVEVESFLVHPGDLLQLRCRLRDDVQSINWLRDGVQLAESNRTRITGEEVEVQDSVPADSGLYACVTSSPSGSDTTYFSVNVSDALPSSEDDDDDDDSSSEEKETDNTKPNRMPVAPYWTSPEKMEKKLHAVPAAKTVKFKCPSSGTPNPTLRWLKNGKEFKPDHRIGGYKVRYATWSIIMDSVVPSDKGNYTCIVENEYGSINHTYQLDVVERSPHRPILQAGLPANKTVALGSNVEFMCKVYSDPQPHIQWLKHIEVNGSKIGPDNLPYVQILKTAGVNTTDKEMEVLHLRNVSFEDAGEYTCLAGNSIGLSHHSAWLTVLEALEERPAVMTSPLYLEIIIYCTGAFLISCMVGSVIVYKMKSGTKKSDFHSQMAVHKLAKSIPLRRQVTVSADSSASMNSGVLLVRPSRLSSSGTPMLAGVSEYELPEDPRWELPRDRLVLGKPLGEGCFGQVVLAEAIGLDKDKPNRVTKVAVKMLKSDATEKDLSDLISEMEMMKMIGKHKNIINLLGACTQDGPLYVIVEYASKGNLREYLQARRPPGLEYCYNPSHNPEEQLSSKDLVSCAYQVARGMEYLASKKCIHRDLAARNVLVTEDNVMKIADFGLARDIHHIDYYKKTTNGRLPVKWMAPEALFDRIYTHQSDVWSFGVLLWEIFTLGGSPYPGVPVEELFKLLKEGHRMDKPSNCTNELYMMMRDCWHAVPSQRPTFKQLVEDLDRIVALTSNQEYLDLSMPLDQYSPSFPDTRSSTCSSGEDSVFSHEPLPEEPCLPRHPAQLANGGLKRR

B1: hAb18-8 (antibody, human IgG1, kappa, L234A L235A, V domains shown)
VH: EVQLVQSGAEVKKPGASVKVSCKASGYTFTDYAMHWVRQAPGQRLEWMGVISTYSGTTNYNQNFKGRVTITVDKSASTAYMELSSLRSEDTAVYYCARSGPLDYWGQGTTVTVSS
VL: ENVLTQSPDFQSVTPKEKVTITCRATSSVSSSYLHWYQQKPDQSPKLWIYSTSQLASGVPSRFSGSGSGTDYTLTINSLEAEDAATYYCQQYSGYPLTFGQGTKLEIKR
notes: human IgG1 (L234A, L235A) / kappa
On to B1, for which the “Activation fold, SRE-Luc2P reporter in HEK293-hFGFR1c cells” value (“Activation fold, SRE-Luc2P reporter” below) with human FGFR1c on cells turned out to be 0.81 fold. This molecule returned a 50% effective concentration (EC50) in test [1] of 1.9 nM. Also, the “binding signal of KLB to Bio-FGF19, % of KLB alone” value (shortened to “binding signal … % of KLB alone”) in test [2] stood at 101%.

B2: hAb99-13 (antibody, human IgG1, kappa, L234A L235A, V domains shown)
VH: EVQLVQSGAEVKKPGASVKVSCKASGYTFTNYGINWVRQAPGQRLEWMGYIYIGNVDIEYNAKFKGRVTITSDTSASTAYMELSSLRSEDTAVYYCARGRGLGHFDVWGQGTTVTVSS
VL: DIQMTQSPSSLSASVGDRVTITCRASKSISKFLAWFQQKPGKTNKLLIYSGSTLQSGVPSRFSGSGSGTDFTLTISSLQPEDFATYYCQQHNEYPWTFGGGTKVEIKR
notes: as for B1
For B2, in the test with human FGFR1c on cells, the “Activation fold, SRE-Luc2P reporter” value was 0.77 fold. Moreover, a half-maximal response in test [1] (EC50) required 0.27 nM. For the same molecule, the “binding signal … % of KLB alone” value in test [2] is 99%.

B3: hAb-23 (antibody, human IgG1, kappa, L234A L235A, V domains shown)
VH: QVQLVQSGAEVKKPGSSVKVSCKASGGTFSSYAISWVRQAPGQGLEWMGGIIPIFGTANYAQKFQGRVTITADESTSTAYMELSSLRSEDTAVYYCARELVSYYYGMDVWGQGTMVTVSS
VL: not shown
notes: from a human natural phage library; human IgG1 (L234A, L235A) / kappa; also called fully human antibody hAb-23
For the molecule B3, the “Activation fold, SRE-Luc2P reporter” value with human FGFR1c on cells amounted to 0.86 fold. The same molecule came in with an EC50 in test [1] of 0.13 nM. Besides, the “binding signal … % of KLB alone” value in test [2] turned out to be 99%.
